From patent publication US20260056186A1 (JIANGSU HENGRUI PHARMACEUTICALS, published 2026)
Where two headings read alike, the source gives them in different places.

Key:
[1] = biological target: T1, BAFF (PeproTech, Cat: 310-13) (UniProt Q9Y275 134-285); test: ELISA, BAFF coated at 1 ug/mL, anti-human Fc-HRP, OD450
Method: (§1) The capabilities of B613301, B613302, and B613303, which are fusion proteins of anifrolumab and TACI-BCMA, to bind to BAFF and APRIL were assessed by ELISA as follows: [0548] BAFF (PeproTech, Cat: 310-13) or ARPIL (Acro Biosystems, Cat: APL-H52D1) was diluted to 1 μg/mL with PBS, and a 96-well plate (Costar, Cat: 3590) was coated with the dilution overnight at 4° C. The plate was washed with PBST and blocked with Blocking Buffer (PBST containing 1% BSA) at 37° C. for 1 h. The plate was tapped. The test antibodies were diluted with Blocking Buffer. Incubation was performed at 37° C. for 1.5 h. The plate was washed with PBST. An HRP-mouse anti-human Fc antibody (GenScript, Cat: A01854-200) was diluted with Blocking Buffer. Incubation was performed at 37° C. for 40 min. The plate was washed with PBST. 100 μL of TMB substrate solution (Biopanda, Cat: TMB-S-003) was added, and color development was performed at 37° C. for 3 min. 100 μL of ELISA stop solution (Solarbio, Cat: C1058) was added. OD450 was measured.

[2] = biological target: T2, recombinant human APRIL (R&D cat: 5860-AP-010/CF) (human, UniProt O75888 105-250, limits assumed); test: cell-based or functional assay
T2 sequence (looked up): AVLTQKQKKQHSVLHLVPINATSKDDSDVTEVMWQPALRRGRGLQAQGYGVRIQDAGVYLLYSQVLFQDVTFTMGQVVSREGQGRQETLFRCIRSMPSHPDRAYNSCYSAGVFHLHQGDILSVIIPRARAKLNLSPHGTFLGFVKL

[3] = biological target: T2, recombinant human APRIL (R&D cat: …); test: cell-based or functional assay; remark: listed apart in the source
[4] = biological target: recombinant human BAFF (R&D cat: 7537-BF-025/CF) (human, UniProt Q9Y275 134-285); test: cell-based or functional assay
recombinant human BAFF (R&D cat: 7537-BF-025/CF), sequence (Q9Y275 134-285 limits assumed): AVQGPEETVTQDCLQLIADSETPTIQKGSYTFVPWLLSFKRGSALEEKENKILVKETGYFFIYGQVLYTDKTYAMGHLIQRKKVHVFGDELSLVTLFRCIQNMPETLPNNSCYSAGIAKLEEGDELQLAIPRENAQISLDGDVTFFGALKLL

[5] = biological target: T1, BAFF (PeproTech, Cat: 310-13); test: ELISA, plate coated with BAFF 1 ug/mL, HRP anti-human Fc, OD450
Method: as §1, with “BAFF” for “The capabilities of B613301, B613302, and B613303, which are fusion proteins of anifrolumab and TACI-BCMA, to bind to BAFF and APRIL were assessed by ELISA as follows: [0548] BAFF”, “310-13)” for “310-13) or ARPIL (Acro Biosystems, Cat: APL-H52D1)”, “plate” for “plate (Costar, Cat: 3590)”

[6] = biological target: T1, BAFF (PeproTech, Cat: 310-13); test: ELISA, BAFF coated at 1 ug/mL, anti-human Fc-HRP, OD450; remark: listed apart in the source
Method: The capabilities of fusion proteins B606401, B637302, B746201, and B805201 to bind to BAFF and APRIL were assessed by ELISA as follows:
as §1, with “BAFF” for “The capabilities of B613301, B613302, and B613303, which are fusion proteins of anifrolumab and TACI-BCMA, to bind to BAFF and APRIL were assessed by ELISA as follows: [0548] BAFF”, “plate” for “plate (Costar, Cat: 3590)”

[7] = biological target: T1, BAFF (PeproTech, Cat: 310-13); test: as above; remark: listed apart in the source
Method: as §1, with “TACI-BCMA” for “B613301, B613302, and B613303, which are”, “(B575701, B575702, B575703,” for “of anifrolumab”, “B575704)” for “TACI-BCMA,”, “follows:” for “follows: [0548]”
The capability of B575702 to bind to BAFF was consistent with that of B575704, and their EC₅₀ values decreased to ¼ of that of telitacicept. The capability of B575701 to bind to BAFF was consistent with that of B575703, and their EC₅₀ values decreased to ½ of that of telitacicept.

T1 sequence (Q9Y275 134-285 limits assumed): as above

B1: Telitacicept (RCT-18) (Fc fusion)
chain: SRVDQEERFPQGLWTGVAMRSCPEEQYWDPLLGTCMSCKTICNHQSQRTCAAFCRSLSCRKEQGKFYDHLLRDCISCASICGQHPKQCAYFCENKLRSPVNLPPELDKTHTCPPCPAPEAEGAPSVFLFPPKPKDTLMISRTPEVTCVVVDVSHEDPEVKFNWYVDGVEVHNAKTKPREEQYNSTYRVVSVLTVLHQDWLNGKEYKCKVSNKALPSSIEKTISKAKGQPREPQVYTLPPSRDELTKNQVSLTCLVKGFYPSDIAVEWESNGQPENNYKTTPPVLDSDGSFFLYSKLTVDKSRWQQGNVFSCSVMHEALHNHYTQKSLSLSPGK
notes: Positive control TACI-Fc; also called RC18
EC50 [1]: 0.801 nM | Flow cytometry proliferating B cell proportion (%), mean value, APRIL-induced, drug at 4.12 nM (IgG1: 55.30) [2]: 48.1% | Flow cytometry proliferating B cell proportion (%), mean value, APRIL-induced, drug at 12.35 nM (IgG1: 54.80) [2]: 49.2% | Flow cytometry proliferating B cell proportion (%), mean value, APRIL-induced, drug at 37.04 nM (IgG1: 56.63) [2]: 50.1% | Flow cytometry proliferating B cell proportion (%), mean value, APRIL-induced, drug at 111.11 nM (IgG1: 55.83) [2]: 50.3% | Flow cytometry proliferating B cell proportion (%), mean value, APRIL-induced, drug at 333.33 nM (IgG1: 56.27) [2]: 49.1% | Flow cytometry proliferating B cell proportion (%), mean value, APRIL-induced, drug at 1000.00 nM (IgG1: 53.27) [2]: 46.3% | CD27+ CD38+ plasma cell count, mean value, BAFF + APRIL-induced (both ligands together), drug at 10 nM (IgG1: 2687) [3]: 2450 cells | CD27+ CD38+ plasma cell count, mean value, BAFF + APRIL-induced (both ligands together), drug at 100 nM (IgG1: 2496) [3]: 510 cells | CD27+ CD38+ plasma cell count, mean value, BAFF + APRIL-induced (both ligands together), drug at 1000 nM (IgG1: 2279) [3]: 230 cells | CD27+ CD38+ plasma cell count, mean value, BAFF + APRIL-induced (both ligands together), drug at 100 nM (IgG1: 2496) [4]: 510 cells | CD27+ CD38+ plasma cell count, mean value, BAFF + APRIL-induced (both ligands together), drug at 1000 nM (IgG1: 2279) [4]: 230 cells | EC50 (read off the curve) [5]: ~0.2 nM | EC50 [6]: 0.256 nM | EC50 [7]: 0.713 nM | Emax [7]: 2.28 nM (as printed)
